B1: BBSome complex member BBS1 (Homo sapiens), Q8NFJ9 (parent)
chain: MAAASSSDSDACGAESNEANSKWLDAHYDPMANIHTFSACLALADLHGDGEYKLVVGDLGPGGQQPRLKVLKGPLVMTESPLPALPAAAATFLMEQHEPRTPALALASGPCVYVYKNLRPYFKFSLPQLPPNPLEQDLWNQAKEDRIDPLTLKEMLESIRETAEEPLSIQSLRFLQLELSEMEAFVNQHKSNSIKRQTVITTMTTLKKNLADEDAVSCLVLGTENKELLVLDPEAFTILAKMSLPSVPVFLEVSGQFDVEFRLAAACRNGNIYILRRDSKHPKYCIELSAQPVGLIRVHKVLVVGSTQDSLHGFTHKGKKLWTVQMPAAILTMNLLEQHSRGLQAVMAGLANGEVRIYRDKALLNVIHTPDAVTSLCFGRYGREDNTLIMTTRGGGLIIKILKRTAVFVEGGSEVGPPPAQAMKLNVPRKTRLYVDQTLREREAGTAMHRAFQTDLYLLRLRAARAYLQALESSLSPLSTTAREPLKLHAVVQGLGPTFKLTLHLQNTSTTRPVLGLLVCFLYNEALYSLPRAFFKVPLLVPGLNYPLETFVESLSNKGISDIIKVLVLREGQSAPLLSAHVNMPGSEGLAAA
partner: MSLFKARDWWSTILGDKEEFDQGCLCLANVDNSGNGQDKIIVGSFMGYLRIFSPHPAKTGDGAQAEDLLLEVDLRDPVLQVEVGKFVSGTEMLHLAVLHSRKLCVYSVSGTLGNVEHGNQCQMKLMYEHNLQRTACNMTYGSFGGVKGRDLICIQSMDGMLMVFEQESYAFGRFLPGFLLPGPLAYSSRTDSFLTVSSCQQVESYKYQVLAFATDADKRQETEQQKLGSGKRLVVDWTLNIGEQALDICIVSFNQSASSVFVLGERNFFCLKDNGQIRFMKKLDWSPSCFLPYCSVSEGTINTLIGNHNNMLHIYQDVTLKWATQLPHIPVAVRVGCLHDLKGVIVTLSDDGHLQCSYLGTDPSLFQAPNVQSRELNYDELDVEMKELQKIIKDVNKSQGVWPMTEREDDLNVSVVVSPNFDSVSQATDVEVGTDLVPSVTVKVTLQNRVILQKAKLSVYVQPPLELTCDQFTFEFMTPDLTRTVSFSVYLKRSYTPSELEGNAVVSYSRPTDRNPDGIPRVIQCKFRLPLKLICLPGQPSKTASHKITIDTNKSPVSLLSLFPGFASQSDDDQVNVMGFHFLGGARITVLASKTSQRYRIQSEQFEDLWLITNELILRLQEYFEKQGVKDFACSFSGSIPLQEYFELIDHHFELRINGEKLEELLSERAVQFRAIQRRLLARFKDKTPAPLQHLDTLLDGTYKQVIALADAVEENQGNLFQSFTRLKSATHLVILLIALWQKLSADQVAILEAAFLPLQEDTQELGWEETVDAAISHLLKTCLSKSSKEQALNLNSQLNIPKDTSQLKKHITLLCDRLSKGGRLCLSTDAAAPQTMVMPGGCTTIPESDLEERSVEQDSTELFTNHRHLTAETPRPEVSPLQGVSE
B2: BBSome complex member BBS2 (Homo sapiens), Q9BXC9 (parent)
chain: MLLPVFTLKLRHKISPRMVAIGRYDGTHPCLAAATQTGKVFIHNPHTRNQHVSASRVFQSPLESDVSLLSINQAVSCLTAGVLNPELGYDALLVGTQTNLLAYDVYNNSDLFYREVADGANAIVLGTLGDISSPLAIIGGNCALQGFNHEGSDLFWTVTGDNVNSLALCDFDGDGKKELLVGSEDFDIRVFKEDEIVAEMTETEIVTSLCPMYGSRFGYALSNGTVGVYDKTSRYWRIKSKNHAMSIHAFDLNSDGVNELITGWSNGKVDARSDRTGEVIFKDNFSSAIAGVVEGDYRMDGHIQLICCSVDGEIRGYLPGTAEMRGNLMDTSAEQDLIRELSQKKQNLLLELRNYEENAKAELASPLNEADGHRGIIPANTRLHTTLSVSLGNETQTAHTELRISTSNDTIIRAVLIFAEGIFTGESHVVHPSIHNLSSSICIPIVPPKDVPVDLHLKAFVGYRSSTQFHVFESTRQLPRFSMYALTSLDPASEPISYVNFTIAERAQRVVVWLGQNFLLPEDTHIQNAPFQVCFTSLRNGGHLHIKIKLSGEITINTDDIDLAGDIIQSMASFFAIEDLQVEADFPVYFEELRKVLVKVDEYHSVHQKLSADMADHSNLIRSLLVGAEDARLMRDMKTMKSRYMELYDLNRDLLNGYKIRCNNHTELLGNLKAVNQAIQRAGRLRVGKPKNQVITACRDAIRSNNINTLFKIMRVGTASS
partner: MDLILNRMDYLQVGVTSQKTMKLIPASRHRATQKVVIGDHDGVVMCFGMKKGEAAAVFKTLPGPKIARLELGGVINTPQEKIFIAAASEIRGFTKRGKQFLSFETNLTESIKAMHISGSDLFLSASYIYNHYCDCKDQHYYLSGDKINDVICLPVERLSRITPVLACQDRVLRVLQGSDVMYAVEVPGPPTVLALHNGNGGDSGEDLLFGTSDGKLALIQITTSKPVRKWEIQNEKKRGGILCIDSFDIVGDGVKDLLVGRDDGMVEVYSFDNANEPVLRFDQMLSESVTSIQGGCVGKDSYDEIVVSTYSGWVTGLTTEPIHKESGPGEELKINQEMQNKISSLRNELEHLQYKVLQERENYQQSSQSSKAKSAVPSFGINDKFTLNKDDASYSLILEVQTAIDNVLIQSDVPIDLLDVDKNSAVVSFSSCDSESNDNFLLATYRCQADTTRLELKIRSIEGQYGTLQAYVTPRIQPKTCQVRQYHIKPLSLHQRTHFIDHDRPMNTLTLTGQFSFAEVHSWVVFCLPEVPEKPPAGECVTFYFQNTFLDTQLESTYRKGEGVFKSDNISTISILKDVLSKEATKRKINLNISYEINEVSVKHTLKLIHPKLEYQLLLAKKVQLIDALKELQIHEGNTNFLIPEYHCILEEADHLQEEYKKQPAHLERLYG

Variants of: B1
Settings: with pthb1_human BBS9, Q3SYG4

Variant	effect of a mutation on the interaction
G589E	with no effect
G589K	with no effect
G589A	with no effect
V568E	disrupting interaction strength
V568K	disrupting interaction strength
V568A	disrupting interaction strength
E571A	with no effect
E571K	with no effect
A575E	with no effect
A575K	with no effect
P576K	disrupting interaction strength
P576A	with no effect
P576E	with no effect
E588A	with no effect
E588K	with no effect
R570A	with no effect
R570E	with no effect
R570K	with no effect
S587K	with no effect
S587E	with no effect
S587A	with no effect
Q573A	with no effect
Q573K	with no effect
Q573E	with no effect
S579K	with no effect
S579A	with no effect
S579E	with no effect

Variant	effect of a mutation on the interaction
V582A	with no effect
V582E	with no effect
V582K	with no effect
V566A	with no effect
V566E	disrupting interaction strength
V566K	disrupting interaction strength
S574E	with no effect
S574K	with no effect
S574A	with no effect
P585E	with no effect
P585K	with no effect
P585A	with no effect
L577K	with no effect
L577E	with no effect
L577A	with no effect
L578E	with no effect
L578A	with no effect
L578K	with no effect
N583A	with no effect
N583E	with no effect
N583K	with no effect
G586A	with no effect
G586K	with no effect
G586E	with no effect
G586R	disrupting interaction strength
L569A	with no effect
L569K	with no effect

Variant	effect of a mutation on the interaction
L569E	disrupting interaction strength
L590K	with no effect
L590E	with no effect
L590A	with no effect
H581A	with no effect
H581K	with no effect
H581E	with no effect
M584K	with no effect
M584E	with no effect
M584A	with no effect
A591E	with no effect
A591K	with no effect
A580E	with no effect
A580K	with no effect
K565E	with no effect
K565A	with no effect
G572K	with no effect
G572E	with no effect
G572A	with no effect
A592K	with no effect
A592E	with no effect
A593K	with no effect
A593E	with no effect
L567E	with no effect
L567A	with no effect
L567K	with no effect

Variants of: B1
Settings: with pthb1_human BBS9, Q3SYG4
Remark: another data set of the same source

Variant	effect of a mutation on the interaction
R512H	with no effect
L503H	disrupting interaction strength

Variants of: B2
Settings: with BBS7, Q8IWZ6-2

Variant	effect of a mutation on the interaction
K360P	disrupting interaction strength
K360E	with no effect
K360A	with no effect
N354A	with no effect
N354E	with no effect
N354K	with no effect
A361K	with no effect
A361E	with no effect
E356A	with no effect
